The numbers were not newly measured in publication PMC2803043, which cites them from elsewhere.

As a reminder, the Kd is a measure of binding affinity in units of concentration.

For this series, the target named is Frizzled (Drosophila melanogaster) (UniProt P18537).
Sequence of UniProt P18537 (P18537 19-581): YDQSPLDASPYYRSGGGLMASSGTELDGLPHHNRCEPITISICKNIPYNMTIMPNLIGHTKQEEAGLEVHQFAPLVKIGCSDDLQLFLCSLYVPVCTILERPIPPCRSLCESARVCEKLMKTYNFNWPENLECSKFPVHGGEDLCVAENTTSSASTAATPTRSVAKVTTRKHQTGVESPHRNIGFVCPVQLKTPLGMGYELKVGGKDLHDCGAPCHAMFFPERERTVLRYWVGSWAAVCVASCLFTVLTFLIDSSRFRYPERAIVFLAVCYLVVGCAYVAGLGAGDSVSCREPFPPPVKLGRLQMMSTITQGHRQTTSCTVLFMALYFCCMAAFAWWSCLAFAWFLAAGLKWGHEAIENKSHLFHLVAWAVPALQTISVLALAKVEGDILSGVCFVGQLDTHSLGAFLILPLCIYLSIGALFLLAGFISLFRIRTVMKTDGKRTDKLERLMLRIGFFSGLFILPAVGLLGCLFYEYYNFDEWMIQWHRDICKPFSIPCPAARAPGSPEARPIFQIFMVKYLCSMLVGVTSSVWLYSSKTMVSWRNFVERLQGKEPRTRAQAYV

Consider Dishevelled PDZ (from UniProt P51140), for which the Kd was 10 µM.
